We go through 1 substance from paper PMC3454426.

Assay [1] deals with Moniliophthora perniciosa necrosis- and ethylene-inducing protein 2 (MpNep2) (Moniliophthora perniciosa). Briefly: dynamic light scattering; monomer 120 uM and dimer 45 uM in 20 mM phosphate, 80 mM NaCl, pH 7.4, 25°C.
Assay [2] shares this target. The experiment in a line: SEC; preparative Sephacryl S100 16/60 and analytical UFLC on Superdex 200 or 75, 0.7 mL/min; 20 mM phosphate pH 7.4, 80 mM NaCl; also at different ionic strengths and after 1 mM 2-mercaptoethanol.

Regarding “Moniliophthora perniciosa necrosis- and ethylene-inducing protein 2 (MpNep2) (natural protein)”, the stoichiometry N in assay [1] and in assay [2] was 2 throughout.
